T1: Recombinant RON-Fc (UniProt Q04912 25-957, limits assumed)
T1 construct: Immobilised on the BIAcore chip; also called RON proteins; not shown: Fc part
T1 sequence (looked up): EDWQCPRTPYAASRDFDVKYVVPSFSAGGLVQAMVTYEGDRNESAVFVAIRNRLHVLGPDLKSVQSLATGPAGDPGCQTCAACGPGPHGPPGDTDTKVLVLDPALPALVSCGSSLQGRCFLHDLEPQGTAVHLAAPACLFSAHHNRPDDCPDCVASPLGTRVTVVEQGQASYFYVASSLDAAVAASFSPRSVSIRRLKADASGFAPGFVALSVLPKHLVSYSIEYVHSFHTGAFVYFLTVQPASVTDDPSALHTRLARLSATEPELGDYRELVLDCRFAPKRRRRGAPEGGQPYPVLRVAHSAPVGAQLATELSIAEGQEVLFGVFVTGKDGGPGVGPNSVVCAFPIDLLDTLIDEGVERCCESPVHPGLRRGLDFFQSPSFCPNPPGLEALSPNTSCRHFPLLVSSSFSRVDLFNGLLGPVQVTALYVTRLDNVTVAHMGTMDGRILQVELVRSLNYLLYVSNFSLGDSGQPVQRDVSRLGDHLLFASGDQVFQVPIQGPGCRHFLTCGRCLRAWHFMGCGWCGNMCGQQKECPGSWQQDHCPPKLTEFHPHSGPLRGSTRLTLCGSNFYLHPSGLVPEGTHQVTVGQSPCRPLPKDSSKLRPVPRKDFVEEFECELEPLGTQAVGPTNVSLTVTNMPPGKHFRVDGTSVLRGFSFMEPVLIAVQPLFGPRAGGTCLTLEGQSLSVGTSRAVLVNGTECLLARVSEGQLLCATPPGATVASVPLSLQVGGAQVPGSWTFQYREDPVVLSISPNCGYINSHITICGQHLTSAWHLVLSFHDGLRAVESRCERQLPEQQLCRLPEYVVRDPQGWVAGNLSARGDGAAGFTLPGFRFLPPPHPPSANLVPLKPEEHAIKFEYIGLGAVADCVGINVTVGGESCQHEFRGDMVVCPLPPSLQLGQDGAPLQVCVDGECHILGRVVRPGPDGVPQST

T2: recombinant human RON protein (rh-RON protein, R&D Systems; recombinant human MSPR) (human, UniProt Q04912 25-571)
T2 construct: Bought soluble recombinant protein; also called rhu-RON protein; rh-MSPR; not shown: His tag on the recombinant protein
T2 sequence (looked up): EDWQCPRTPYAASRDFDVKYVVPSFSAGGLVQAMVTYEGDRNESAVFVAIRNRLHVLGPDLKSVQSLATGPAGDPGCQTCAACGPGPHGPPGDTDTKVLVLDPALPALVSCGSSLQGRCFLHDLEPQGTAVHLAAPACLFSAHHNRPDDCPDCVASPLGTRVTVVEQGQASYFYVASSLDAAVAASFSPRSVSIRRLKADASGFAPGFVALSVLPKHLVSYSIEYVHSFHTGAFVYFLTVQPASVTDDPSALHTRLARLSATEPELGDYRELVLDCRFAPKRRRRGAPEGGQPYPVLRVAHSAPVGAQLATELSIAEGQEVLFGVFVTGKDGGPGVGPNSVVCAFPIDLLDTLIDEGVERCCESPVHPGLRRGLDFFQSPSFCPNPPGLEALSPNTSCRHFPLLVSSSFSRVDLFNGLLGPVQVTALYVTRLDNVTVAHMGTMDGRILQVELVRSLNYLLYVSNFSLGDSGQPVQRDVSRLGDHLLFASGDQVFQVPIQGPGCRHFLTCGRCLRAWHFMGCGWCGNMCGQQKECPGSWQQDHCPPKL


Columns and labels:
Recombinant RON-Fc [1] = biological target: T1, Recombinant RON-Fc; experiment: comparison of KD values; reference RON1
Recombinant RON-Fc [2] = biological target: T1, Recombinant RON-Fc; experiment: SPR (BIACORE 3000), RON-Fc immobilised, antibody injected; BIACORE 3000, RON-Fc immobilized
Experimental: BIAcore Analysis. The binding kinetics of the antibodies to the RON proteins was determined by using a BIACORE 3000 (BIAcore, Piscataway, N.J.). Recombinant RON-Fc was immobilized onto a sensor chip, and antibody was injected at various concentrations. Sensorgrams were obtained and evaluated using BIA Evaluation 2.0 software to determine rate constants. The affinity constant, KD, was calculated from the ratio of the rate constants Koff/Kₒₙ. The “Kₒₙ, M⁻¹.S⁻¹” and “Koff, S⁻¹” rates of the interaction were used to determine the affinity (Kd, M) of the antibody/receptor interaction. […] For RON8 they were: 3.2e-11, 6.1e6 and 2.0e-4

[3] = biological target: T2, recombinant human RON protein (rh-RON …); experiment: ELISA, receptor immobilised on the plate (given as ED50)
Experimental: The ability of the anti-RON antibodies, RON6 and RON8, to bind to recombinant human RON receptor and to block the MSP/RON interaction were measured using ELISA. […] Using the same ELISA format, the two antibodies were tested for their ability to block MSP/RON interactions. The measured IC₅₀ values were 46 pM for RON6 and 62 pM for RON8.

[4] = biological target: T2, recombinant human RON protein (rh-RON …); experiment: blocking ELISA: serially diluted RON8 pre-incubated with His-tagged recombinant human RON (rh-MSPR), added to plate-immobilised recombinant human MSP (the blocked ligand); bound RON detected with anti-His-tag HRP, absorbance 450 nm
Experimental: ELISA to Detect RON8 Blocking of MSP Binding to RON: ELISA plates were coated with 100 ng/well carrier-free MSP (R&D Systems) overnight at 4° C. on a rocker. The plate was washed once with 0.2% PBS/T and blocked for 2 hours at 37° C. with 150 μL/well 3% milk. A 15 μg/mL dilution of RON8 was prepared and serially diluted across another ELISA plate. To the RON8, was added 100 ng/well recombinant human MSPR (R&D Systems). The RON8/rh-MSPR complex was allowed to form for 2 hours at room temperature on a rocker. Next, the MSP-coated ELISA plate was washed once with 0.2% PBS/T and 100 μL of the RON8/rh-MSPR complex were added per well. After a 1.5-hour incubation at room temperature, the plate was washed five times with 0.2% PBS/T and incubated for 1 hour at room temperature with a 1:2,000 dilution of anti-His-tag HRP antibody (Sigma), which recognizes a His tag on the recombinant human MSPR protein. The plate was washed five times with 0.2% PBS/T and 100-AL substrate was added per well until a yellow color developed. The reaction was stopped with 50 μL of 1N H₂SO4 and the absorbance at 450 nm determined with a standard plate reader. The results of which are illustrated by FIG. 6A depict the solid-phase blocking characteristic of RON8. The ELISA data determined the IC50 value of RON8 needed to block the interaction of recombinant human RON protein to immobilized recombinant human MSP.

Recombinant RON-Fc [5] = biological target: T1, Recombinant RON-Fc; experiment: method and RON form not stated at this place; clone-selection value of paragraph 178; method and RON form not stated
[6] = biological target: T2, recombinant human RON protein (rh-RON …); experiment: ELISA, blocking of MSP/RON interaction; ligand MSP

Row | fold greater affinity than RON1 (Recombinant RON-Fc [1]) [fold] | Kd (Recombinant RON-Fc [2]) [pM] | koff (Recombinant RON-Fc [2]) [s⁻¹] | kon (Recombinant RON-Fc [2]) [M⁻¹ s⁻¹] | EC50 [3] [pM] | IC50 [4] [pM] | IC50 (read off the curve) [4] [pM] | Kd (Recombinant RON-Fc [5]) [pM] | IC50 [6] [pM] | Binder
1 | 100 | 32 | 0.0002 | 6.1e+06 | 2.1 | 473 | ~500 | 23 | 62 | RON8 antibody (human anti-RON monoclonal antibody) (antibody, human IgG1, kappa, V domains shown, Fully human IgG from HuMAb mice) VH: EVQLVESGGGLVQPGGSLRLSCAASGFTFSSYLMTWVRQAPGKGLEWVANIKQDGSEKYYVDSVKGRFTISRDNAKNSLNLQMNSLRAEDTAVYYCTRDGYSSGRHYGMDVWGQGTTVIVSS VL: EIVLTQSPATLSLSPGERATLSCRASQSVSRYLAWYQQKPGQAPRLLIYDASNRATGIPARFSGSGSGTDFTLTISSLEPEDFAVYYCQQRSNWPRTFGQGTKVEIKR
2 | 100 | 41 | 8.6e-05 | 2.2e+06 | 4.2 | – | – | 45 | 46 | RON6 antibody (human anti-RON monoclonal antibody) (antibody, human IgG1, kappa, V domains shown, Fully human IgG from HuMAb mice) VH: QVQLVQSGPEVKKSGSSVKVSCKASGGTFSSDAITWVRQAPGQGLEWMGGIIPILGMANYAQKFQGRVTITADKSTNTAYMELSSLRSEDTAVYFCARVADYYGLGTYYWYFDLWGRGTLVTVSS VL: not shown
